The nature of this data set: protein stability index of a GFP-peptide fusion (GPS, HEK-293T) (PSI 1-6); higher = more stable.
The mark [1] stands for this setting: treatment: DMSO, c terminus: a fixed tail appended.
Setting [2] is: treatment: MLN4924 1 uM, 8 h, c terminus: a fixed tail appended.

± gives the standard deviation.
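Further: 24-mer peptide tiles fused after GFP, lentivirally expressed, FACS-sorted into six equal bins by GFP/DsRed ratio, decoded by Illumina sequencing, PSI is the read-weighted mean bin number.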

Turning to LVENDQQLQKILSIPQSSLEPLKA [ACSBG2], the protein stability index runs as follows: under setting [1], 3.66 ± 0.34; under setting [2], 3.99 ± 0.41.

As to LVETNRREVEQWFATQTEELNKQV [KRT33B], the protein stability index turned out to be 4.41 ± 0.21 under setting [1] and 4.49 ± 0.31 under setting [2].

On to LVGDSDVGKGEILASLQDGAAESP [RAB40B], for which the protein stability index runs as follows: under setting [1], 5.18 ± 0.17; under setting [2], 5.36 ± 0.32.

In the case of LVKNLKDTLGLGKTRRKTSARDAS [NCK2], the protein stability index under setting [1] is 3.19 ± 0.38 and the protein stability index under setting [2] stood at 3.35 ± 0.3.

As to LVVPNKGYSSLDQSPDEKPLVALD [FAM219A], the protein stability index reads like this: under setting [1], 4.45 ± 0.17; under setting [2], 4.42 ± 0.25.

Consider LWAGSKGKEFGYFPRDAVQIEEVF [MIA2], for which the protein stability index came out at 2.66 ± 0.51 under setting [1] and 2.77 ± 0.46 under setting [2].

As for LYNMDLSDDHIRVIVQLHKLRHLD [ZER1], the protein stability index by setting is: under setting [1], 2.25 ± 0.38; under setting [2], 2.56 ± 0.37.

Regarding LYRGLAPNFMKVIPAVSISYVVYE [SLC25A25], the protein stability index was found to be 2.71 ± 0.67 under setting [1] and 3.25 ± 0.51 under setting [2].

As for LYRTLFSVINNGHNQKVHMHMVDL [PDS5B], the protein stability index by setting is: under setting [1], 2.73 ± 0.56; under setting [2], 2.77 ± 0.77.

Sequence LYTGELDENERDLMHIAHIAELLE [RHOBTB2] registered a protein stability index under setting [1] of 2.69 ± 0.33 and a protein stability index under setting [2] of 3.09 ± 0.34.

For LYWRDIKQTGIVFGSFLLLLFSLT [RTN1], the protein stability index runs as follows: under setting [1], 2.52 ± 0.22; under setting [2], 2.35 ± 0.23.

For the sequence MAAGSEPESVEASPVVVEKSNSYP [KMT2E], the protein stability index turned out to be 5.3 ± 0.11 under setting [1] and 5.19 ± 0.24 under setting [2].

On to MAEISRIQYEMEYTEGISQRMRVP [MFF], for which the protein stability index runs as follows: under setting [1], 2.67 ± 0.3; under setting [2], 2.79 ± 0.6.

Take MAGRPHPYDGNSSDPENWDRKLHS [BTBD10]: the protein stability index under setting [1] is 4.63 ± 0.086 and the protein stability index under setting [2] was found to be 4.71 ± 0.088.

Turning to MALPFFSLAEVRVGYQSQNISCFF [MYORG], the protein stability index is, setting by setting: under setting [1], 3.15 ± 1.1; under setting [2], 3.11 ± 0.89.

Consider MASNERDAISWYQKKIGAYDQQIW [PHTF1], for which the protein stability index is 2.51 ± 0.39 under setting [1] and 2.55 ± 0.16 under setting [2].

With MDNYADLSDTELTTLLRRYNIPHG [EMD], the protein stability index reads like this: under setting [1], 3.19 ± 0.11; under setting [2], 3.37 ± 0.15.

In the case of MDSGCWLFGGEFEDSVFEERPERR [C8orf76], the protein stability index under setting [1] was determined as 4.06 ± 0.33 and the protein stability index under setting [2] amounted to 4.29 ± 0.27.

MEAMAASTSLPDPGDFDRNVPRIC [VDR]: the protein stability index reads like this: under setting [1], 4.53 ± 0.11; under setting [2], 4.53 ± 0.19.

As for MEEASEGGGNDRVRNLQSEVEGVK [VAMP8], the protein stability index amounted to 5.49 ± 0.19 under setting [1] and 5.38 ± 0.16 under setting [2].

MERARDRLHLRRTTEQHVPEVEVQ [SNURF]: the protein stability index under setting [1] amounted to 4.77 ± 0.2 and the protein stability index under setting [2] is 4.72 ± 0.06.

As to MFGLVIPLGVLQAIAMYFLPPSPR [SLC2A12], the protein stability index by setting is: under setting [1], 2.46 ± 0.64; under setting [2], 2.53 ± 0.64.

With MGGIMAPKDIMTNTHAKSILNSMN [KLHL12], the protein stability index under setting [1] was determined as 2.83 ± 0.092 and the protein stability index under setting [2] amounted to 3.27 ± 0.47.

In the case of MLALRGQTGGDVNVEMDAAPGVDL [KRT16], the protein stability index is, setting by setting: under setting [1], 4.25 ± 0.17; under setting [2], 4.78 ± 0.17.

Regarding MLSHDNITWIAGAVTKDFKLTDKH [ACSBG2], the protein stability index was 2.66 ± 0.42 under setting [1] and 2.86 ± 0.3 under setting [2].

As for MLWEHNSTIVVMLTKLREMGREKC [PTPRD], the protein stability index runs as follows: under setting [1], 2.33 ± 0.55; under setting [2], 2.15 ± 0.2.

As to MMRREDEEEEGTMMKAKGDLEMKE [ZBED2], the protein stability index by setting is: under setting [1], 5.56 ± 0.25; under setting [2], 5.64 ± 0.29.

Take MNVDFDAPLGYKEPERQVQHEEST [UFD1]: the protein stability index reads like this: under setting [1], 5.28 ± 0.062; under setting [2], 5.31 ± 0.29.

For MPPVSYDVQLLHSWNNNDRSLNVF [SPSB1], the protein stability index runs as follows: under setting [1], 2.46 ± 0.15; under setting [2], 2.26 ± 0.27.

The sequence MPSKLFAGLVHVKQCIVAHPVNPP [CRYL1] displayed a protein stability index under setting [1] of 2.37 ± 0.17 and a protein stability index under setting [2] of 2.46 ± 0.35.

In turn, MPSTPGFVGYNPYSHLAYNNYRLG [SMARCE1] gave a protein stability index under setting [1] of 2.27 ± 0.099 and a protein stability index under setting [2] of 2.42 ± 0.23.

MQQFLQKALEILRKDFSELRSAGV [FAM50A]: the protein stability index runs as follows: under setting [1], 3.67 ± 0.41; under setting [2], 3.03 ± 0.25.

Regarding MRLPLPPAQVHSSLSAGEKPGFLA [RASAL3], the protein stability index runs as follows: under setting [1], 3.4 ± 0.085; under setting [2], 3.35 ± 0.14.

As to MRPPMPPHGQYGGHHQGMPGYLPG [ZNF207], the protein stability index under setting [1] is 3.23 ± 0.3 and the protein stability index under setting [2] amounted to 3.29 ± 0.18.

With MSKLGKFFKGGGSSKSRAAPSPQE [CHMP4C], the protein stability index was determined as 3.56 ± 0.33 under setting [1] and 3.76 ± 0.38 under setting [2].

MSLLPDKKTVHYYAELGQCSVFPA [PLK2] came in with a protein stability index under setting [1] of 2.41 ± 0.13 and a protein stability index under setting [2] of 2.44 ± 0.35.

As to MSNHTRERVTVAKLTLENFYSNLI [STK38L], the protein stability index is, setting by setting: under setting [1], 2.21 ± 0.16; under setting [2], 2.31 ± 0.31.

As for MSVDPACPQSLPCFEASDCKESSP [NANOGP8], the protein stability index came to 5.44 ± 0.23 under setting [1] and 5.41 ± 0.33 under setting [2].

Turning to MSWEKEEGKSRHVDFQCVKSKSIT [BTBD10], the protein stability index by setting is: under setting [1], 4.48 ± 0.085; under setting [2], 4.42 ± 0.2.

As to MTQQGAALQNYNNELVKCIEELCQ [SSNA1], the protein stability index under setting [1] stood at 3.33 ± 0.4 and the protein stability index under setting [2] came to 3.4 ± 0.31.

Regarding MTSISLPSVMDPGAFETVLASAYT [ZBTB22], the protein stability index is 2.57 ± 0.23 under setting [1] and 2.72 ± 0.26 under setting [2].

For MTWSPLACGIVSGKYDSGIPPYSR [KCNAB2], the protein stability index worked out at 3.19 ± 0.54 under setting [1] and 2.92 ± 0.3 under setting [2].

Turning to MVGGNAVPQRTAGGDVPERELYIR [MYORG], the protein stability index stood at 3.9 ± 0.28 under setting [1] and 4.29 ± 0.16 under setting [2].

Consider MVQLDSIEDLEVTCTWKLPTLAKF [PRAME], for which the protein stability index reads like this: under setting [1], 2.6 ± 0.45; under setting [2], 2.75 ± 0.64.

MWRDLTDEEKQEYLNEYEAEKIEY [SMARCE1] displayed a protein stability index under setting [1] of 4.26 ± 0.4 and a protein stability index under setting [2] of 4.35 ± 0.21.

Regarding NAKAHCGATALHFAAEAGHIDIVK [FEM1B], the protein stability index reads like this: under setting [1], 2.59 ± 0.36; under setting [2], 2.62 ± 0.17.

The sequence NAYKDLAWKHGNIHLSAPCIYSEV [PCMTD1] came in with a protein stability index under setting [1] of 2.31 ± 0.17 and a protein stability index under setting [2] of 2.15 ± 0.31.

For NDKFSFHEVKDNYIPVIKRALNSV [RHOBTB3], the protein stability index turned out to be 2.19 ± 0.49 under setting [1] and 2.41 ± 0.24 under setting [2].

Turning to NDMRDTPLHRAAFTGRKICSQGS [OSBPL1A], the protein stability index by setting is: (treatment: DMSO, c terminus: native) 2.87 ± 0.22; (treatment: MLN4924 1 uM, 8 h, c terminus: native) 2.73 ± 0.39.

As to NDRMSTRHDGYATNDGNHPSCQET [RBMY1A1], the protein stability index stood at 5.17 ± 0.19 under setting [1] and 5.22 ± 0.1 under setting [2].

With NETADLGLDIGAQGEPLGYRQDDP [CTNNB1], the protein stability index by setting is: under setting [1], 5.41 ± 0.2; under setting [2], 5.46 ± 0.23.

For NFDDILNVCDDYDVTCNEFFFDRN [KCNG1], the protein stability index runs as follows: under setting [1], 3.4 ± 0.28; under setting [2], 3.27 ± 0.49.

For the sequence NHEEEVNTLRSQLGDRLNVEVDTA [KRT34], the protein stability index reads like this: under setting [1], 5.4 ± 0.33; under setting [2], 5.441 ± 0.028.

Consider NIHQLQNRLSELEVANKDLTERKY [SASS6], for which the protein stability index is, setting by setting: under setting [1], 3.42 ± 0.15; under setting [2], 3.62 ± 0.34.

In turn, NIYETGDVCISILHPPVDDPQSGE [CDC34] displayed a protein stability index under setting [1] of 4.52 ± 0.11 and a protein stability index under setting [2] of 4.51 ± 0.29.

With NLISPVRNGAVRRFGQTIQSFTLR [NET1], the protein stability index came to 2.65 ± 0.32 under setting [1] and 2.7 ± 0.14 under setting [2].

As for NLLNMAYGVKSPLSLIARFSPIAI [ELAVL3], the protein stability index runs as follows: under setting [1], 2.83 ± 0.58; under setting [2], 2.81 ± 0.65.

With NLTIRAGALTGKENNMLQPETHIF [DMRTC1], the protein stability index runs as follows: under setting [1], 2.95 ± 0.21; under setting [2], 3.17 ± 0.39.

With NNSNLQRMGSSESTDSGFCLDSPG [CDC25A], the protein stability index was 4.43 ± 0.92 under setting [1] and 4.8 ± 0.3 under setting [2].

In turn, NPMDMGTIKKRLENNYYWSASECM [BRD3] displayed a protein stability index under setting [1] of 2.34 ± 0.31 and a protein stability index under setting [2] of 2.65 ± 0.082.

For NREVATNSELVQSGKSEISELRRT [KRT17], the protein stability index runs as follows: under setting [1], 5 ± 0.22; under setting [2], 5.09 ± 0.24.

On to NRMHESMKLFDSICNNKWFTDTSI [GNAI1], for which the protein stability index runs as follows: under setting [1], 2.38 ± 0.27; under setting [2], 2.33 ± 0.45.

On to NRPSFDAILYYYQSGGRLRRPVNV [KCNA1], for which the protein stability index runs as follows: under setting [1], 2.24 ± 0.085; under setting [2], 2.37 ± 0.14.

Consider NSAEACQYVITHAKVNILLVENDQ [ACSBG2], for which the protein stability index worked out at 2.18 ± 0.52 under setting [1] and 2.62 ± 0.25 under setting [2].

On to NSTSYSNYYRTWNVVVHDWLYYYA [SOAT1], for which the protein stability index turned out to be 2.63 ± 0.52 under setting [1] and 2.56 ± 0.55 under setting [2].

For the sequence NSVISVCSSSNLAGNDDSFGSLPS [DLC1], the protein stability index by setting is: under setting [1], 4.18 ± 0.21; under setting [2], 4.23 ± 0.24.

NTEVVQVAAGRTQKAGVTRSGRLI [NEK8]: the protein stability index stood at 4.32 ± 0.21 under setting [1] and 4.4 ± 0.16 under setting [2].

With NVKLQELINHKKAEDTEKKDEPSK [CEP70], the protein stability index is 5.35 ± 0.16 under setting [1] and 5.2 ± 0.21 under setting [2].

For the sequence PALCFAAAIFSLFFVPLSYLLMVT [TMEM175], the protein stability index turned out to be 3.03 ± 0.093 under setting [1] and 3.31 ± 0.21 under setting [2].

For the sequence PATGGAIPSWQIRTVKLIRYVSNW [PKD2L1], the protein stability index came to 2.09 ± 0.24 under setting [1] and 2.24 ± 0.39 under setting [2].

As to PCAGSTSLSHSPGCSSTQGNGRPG [LCOR], the protein stability index is, setting by setting: under setting [1], 3.74 ± 0.42; under setting [2], 4.16 ± 0.33.

Take PCLDQTRVKLTKRSGHTQTDYINA [PTPN9]: the protein stability index was 3.99 ± 0.59 under setting [1] and 3.91 ± 0.1 under setting [2].

Source of the values: the supplement of paper PMC10567573.
